Source: US20190359687A1 (Bayer, published 2019)
Changes are numbered by the printed parent chain.

T1: human glycophorin A in the red blood cell membrane (human, UniProt P02724 20-150)
T1 construct: whole, on cells; used for intact RBC, isolated RBC membranes and transfected cells; the assay field tells which; also called GPA; hGPA
T1 sequence (looked up): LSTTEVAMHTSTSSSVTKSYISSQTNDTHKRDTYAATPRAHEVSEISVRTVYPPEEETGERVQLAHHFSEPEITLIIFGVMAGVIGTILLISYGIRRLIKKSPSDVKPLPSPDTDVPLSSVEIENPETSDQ

T2: Rhesus monkey glycophorin A on Rhesus monkey red blood cells (Rhesus monkey, UniProt A0A1D5Q349 20-150)
T2 construct: whole, on cells; also called Rhesus RBC; monkey GPA
T2 sequence: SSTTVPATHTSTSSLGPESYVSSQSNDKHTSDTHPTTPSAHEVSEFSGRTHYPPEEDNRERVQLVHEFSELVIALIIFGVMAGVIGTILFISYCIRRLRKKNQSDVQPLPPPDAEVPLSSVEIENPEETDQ

B1: Hu6C12-1 (antibody, V domains shown)
VH: EVQLVQSGAEVKKPGASVKVSCKASGYTFTTYTIHWVRQAPGQGLEWMGYINPSSDYTRYNPKFKDRVTMTTDTSTSTAYMELRSLRSDDTAVYYCQRGTRDYWGQGTTVTVSS
VL: DIQLTQSPSFLSASVGDRVTITCSAASSVSYIYWYQQKPGKAPKLLIYSTSTLPSGVPSRFSGSGSGTEFTLTISSLQPEDFATYYCHQRNSFPFTFGQGTKLEIK
notes: IgG format; VH.1a + Vk.1
B2: Hu6C12-10 (antibody, V domains shown)
VH: B1 VH
VL: B1 VL with F70Y
notes: IgG format; VH.1a + Vk.1a
B3: Hu6C12-4 (antibody, V domains shown)
VH: B1 VH with M70L
VL: B1 VL
notes: IgG format; VH.1d + Vk.1
B4: Hu6C12-9 (antibody, V domains shown)
VH: B1 VH with Q97A
VL: B1 VL with F70Y
notes: IgG format; VH.1 + Vk.1a
B5: Hu6C12-17 (antibody, V domains shown)
VH: B1 VH with Q97A
VL: B1 VL with Y35F, F70Y
notes: IgG format; VH.1 + Vk.1b
B6: Hu6C12-18 (antibody, V domains shown)
VH: B1 VH
VL: B1 VL with Y35F, F70Y
notes: IgG format; VH.1a + Vk.1b
B7: Hu6C12-13 (antibody, V domains shown)
VH: B1 VH with M70L
VL: B1 VL with F70Y
notes: IgG format; VH.1d + Vk.1a
B8: 7G4 scFv-Fc (Fc fusion)
scFv: QVQLKESGPGLVAPSQSLSITCTVSGFSLTRFGISWVRQPPGKGLEWMGVIWGDGSTDYHSALISRLSITKDNSKSQVFFRLNSLQSDDSATYYCARSFGMDYWGQGTSVTVSSGGGGSGGGGSGGGGSNIMMTQSPSSLAVSAGEKVTMSCKSSQSILNSSNQKNYLAWYQQKPGQSPKLLIYWASTRESGVPDRFTGSGSGTDFTLTISSVQAEDLAVYYCHQYFSSRTFGGGTKLEIKGGGGAGGGGCKPCICTVPEVSSVFIFPPKPKDVLTITLTPKVTCVVVDISKDDPEVQFSWFVDDVEVHTAQTQPREEQFNSTFRSVSELPIMHQDWLNGKEFKCRVNSAAFPAPIEKTISKTKGRPKAPQVYTIPPPKEQMAKDKVSLTCMITDFFPEDITVEWQWNGQPAENYKNTQPIMDTDGSYFVYSKLNVQKSNWEAGNTFTCSVLHEGLHNHHTEKSLSHSPGK
notes: as m18
B9: 12C6 scFv-Fc (Fc fusion)
scFv: QVQLQQSGAELARPGASVKMSCKASGYTFTRYSMHWVKQRPGQGLEWIGYINPGTYSTNYNQKFKDRATLTADKSSSTAYMQLNSLTSEDSAVYYCQTGTRDYWGQGTTLTVSSGGGGSGGGGSGGGGSQIVLTQSPPIMSASPGEKVTITCSAASSVSYIYWFQQKPGTSPKLWIYSTSSLPSGVPTRFSGSGSGTSYSLTISRMEAEDAATYYCHQRSSYPFTFGSGTKLEIRGGGGAGGGGCKPCICTVPEVSSVFIFPPKPKDVLTITLTPKVTCVVVDISKDDPEVQFSWFVDDVEVHTAQTQPREEQFNSTFRSVSELPIMHQDWLNGKEFKCRVNSAAFPAPIEKTISKTKGRPKAPQVYTIPPPKEQMAKDKVSLTCMITDFFPEDITVEWQWNGQPAENYKNTQPIMDTDGSYFVYSKLNVQKSNWEAGNTFTCSVLHEGLHNHHTEKSLSHSPGK
notes: as m18
B10: 10F1 scFv-Fc (Fc fusion)
scFv: B9 scFv with Q5L, K19R, M20I, S33A, Y56F
notes: as m18
B11: 13G7 scFv-Fc (Fc fusion)
scFv: RVQLQQSGAELARPGASVKMSCKASGYTFTNYAMHWVKQRPGQGLEWIGYINPKSDNTNYNQKFKDKATLTTDKSSATAYMQLSSLTSDDSAVYYCQTGTRDYWGQGTTLTVSSGGGGSGGGGSGGGGSHIVLTQSPAIMSASPGEKVTIFCSASSSITYVYWFQQKPGTSPKLWIYSTSSLPSGVPARFSGSGSGTSYSLTISRMEAEDAATYYCHQRNSYPFTFGSGTKLEIKGGGGAGGGGCKPCICTVPEVSSVFIFPPKPKDVLTITLTPKVTCVVVDISKDDPEVQFSWFVDDVEVHTAQTQPREEQFNSTFRSVSELPIMHQDWLNGKEFKCRVNSAAFPAPIEKTISKTKGRPKAPQVYTIPPPKEQMAKDKVSLTCMITDFFPEDITVEWQWNGQPAENYKNTQPIMDTDGSYFVYSKLNVQKSNWEAGNTFTCSVLHEGLHNHHTEKSLSHSPGK
notes: as m18
B12: 8F9 scFv-Fc (Fc fusion)
scFv: QVQLQQSGAELARPGASVKMSCKASGYTFTSYSIHWIKQRPGQSLEWIGYINPNSDYANYNQKFKDKATLTTDKSSTTAYMQLSSLTTDDSAVYYCQTGTRDYWGQGTTLTVSSGGGGSGGGGSGGGGSHIVLTQSPAIMSASPGEKVTIICSARSSVSYMYWFQQKPGTSPKLWIYATSSLPSGVPARFSGSGSGTSYSLTISRMEAEDAATYYCHQRSSYPYTFGSGTKLEIKGGGGAGGGGCKPCICTVPEVSSVFIFPPKPKDVLTITLTPKVTCVVVDISKDDPEVQFSWFVDDVEVHTAQTQPREEQFNSTFRSVSELPIMHQDWLNGKEFKCRVNSAAFPAPIEKTISKTKGRPKAPQVYTIPPPKEQMAKDKVSLTCMITDFFPEDITVEWQWNGQPAENYKNTQPIMDTDGSYFVYSKLNVQKSNWEAGNTFTCSVLHEGLHNHHTEKSLSHSPGK
notes: as m18

What follows are binders tested against T1, human glycophorin A in the red blood … (assay: FACS, IgG).
Method: (§1) The binding of the humanized variants to intact red blood cells (RBC) from humans (Hu01 to 03; 3 individuals), Rhesus monkey (Rh01 to 03; 3 individuals) and Cynomolgus monkey (Cy01 to 02; 2 individuals) was measured by fluorescence activated cell sorting (FACS).

| Binder | binding result |
| --- | --- |
| B1 | no binding |
| B2 | no binding |
| B3 | no binding |
| B4 | no binding |
| B5 | no binding |
| B6 | no binding |
| B7 | no binding |

Each binder was assayed against T3, dog red blood cells (dog) (assay: FACS, Dog RBC).
T3 construct: also called dog RBC

| Binder | FACS signal |
| --- | --- |
| B8 | 1 Flourescent units |
| B9 | 1 Flourescent units |
| B10 | 1 Flourescent units |
| B11 | 1 Flourescent units |
| B12 | 1 Flourescent units |

What follows are binders tested against T4, Cynomolgus monkey glycophorin A on Cynomolgus monkey red blood cells (Cynomolgus monkey) (assay: FACS, RBC Cy01).
T4 construct: whole, on cells; also called Cyno RBC; Cyno GPA
Method: as §1

| Binder | fluorescence intensity |
| --- | --- |
| B1 | 742 |
| B2 | 872 |
| B3 | 884 |
| B4 | 680 |
| B5 | 104 |
| B6 | 741 |
| B7 | 824 |

The binders below were run against T4, Cynomolgus monkey glycophorin A on … (assay: FACS, RBC Cy02).
Method: as §1

| Binder | fluorescence intensity |
| --- | --- |
| B1 | 801 |
| B2 | 973 |
| B3 | 989 |
| B4 | 756 |
| B5 | 127 |
| B6 | 876 |
| B7 | 937 |

The binders below were run against T1, human glycophorin A in the red blood … (assay: FACS, RBC Hu01).
Method: as §1

| Binder | fluorescence intensity |
| --- | --- |
| B1 | 3 |
| B2 | 3 |
| B3 | 3 |
| B4 | 3 |
| B5 | 3 |
| B6 | 3 |
| B7 | 3 |

What follows are binders tested against T1, human glycophorin A in the red blood … (assay: FACS, RBC Hu02).
Method: as §1

| Binder | fluorescence intensity |
| --- | --- |
| B1 | 3 |
| B2 | 3 |
| B3 | 3 |
| B4 | 3 |
| B5 | 3 |
| B6 | 3 |
| B7 | 3 |

The binders below were run against T1, human glycophorin A in the red blood … (assay: FACS, RBC Hu03).
Method: as §1

| Binder | fluorescence intensity |
| --- | --- |
| B1 | 2 |
| B2 | 2 |
| B3 | 2 |
| B4 | 2 |
| B5 | 2 |
| B6 | 2 |
| B7 | 2 |

The binders below were run against T2, Rhesus monkey glycophorin A on Rhesus … (assay: FACS, RBC Rh01).
Method: as §1

| Binder | fluorescence intensity |
| --- | --- |
| B1 | 1190 |
| B2 | 1410 |
| B3 | 1070 |
| B4 | 1060 |
| B7 | 1370 |

Each binder was assayed against T2, Rhesus monkey glycophorin A on Rhesus … (assay: FACS, RBC Rh02).

| Binder | fluorescence intensity |
| --- | --- |
| B1 | 1120 |
| B2 | 1310 |
| B3 | 1320 |
| B4 | 1060 |
| B7 | 1280 |

Each binder was assayed against T2, Rhesus monkey glycophorin A on Rhesus … (assay: FACS, RBC Rh03).
Method: as §1

| Binder | fluorescence intensity |
| --- | --- |
| B1 | 1140 |
| B2 | 1310 |
| B3 | 1340 |
| B4 | 1050 |
| B7 | 1270 |

Each binder was assayed against T1, human glycophorin A in the red blood … (assay: FACS, Human RBC).

| Binder | FACS signal |
| --- | --- |
| B8 | 1410 Flourescent units |
| B9 | 2900 Flourescent units |
| B10 | 2980 Flourescent units |
| B11 | 2760 Flourescent units |
| B12 | 2340 Flourescent units |

What follows are binders tested against T2, Rhesus monkey glycophorin A on Rhesus … (assay: FACS, Rhesus RBC).

| Binder | FACS signal |
| --- | --- |
| B8 | 1 Flourescent units |
| B9 | 1860 Flourescent units |
| B10 | 2070 Flourescent units |
| B11 | 1860 Flourescent units |
| B12 | 1770 Flourescent units |

These binders were tested against T4, Cynomolgus monkey glycophorin A on … (assay: FACS, Cyno #1 RBC).

| Binder | FACS signal |
| --- | --- |
| B8 | 1 Flourescent units |
| B9 | 2 Flourescent units |
| B10 | 2 Flourescent units |
| B11 | 2 Flourescent units |
| B12 | 2 Flourescent units |

What follows are binders tested against T4, Cynomolgus monkey glycophorin A on … (assay: FACS, Cyno #2 RBC).

| Binder | FACS signal |
| --- | --- |
| B8 | 1 Flourescent units |
| B9 | 956 Flourescent units |
| B10 | 842 Flourescent units |
| B11 | 981 Flourescent units |
| B12 | 761 Flourescent units |

These binders were tested against T4, Cynomolgus monkey glycophorin A on … (assay: FACS, Cyno #3 RBC).

| Binder | FACS signal |
| --- | --- |
| B8 | 1 Flourescent units |
| B9 | 580 Flourescent units |
| B10 | 647 Flourescent units |
| B11 | 632 Flourescent units |
| B12 | 582 Flourescent units |
